Assay results reported in patent US20120253017A1 (published 2012).
Like-named read-outs stand apart in the source and are kept apart here. Values belong to the binder of their own block, whether it stands above or below them.

Assays:
[1] = molecular target: T1, human c-kit (recombinant, on BIAcore chip or beads) (human, UniProt P10721 26-524); assay: BIAcore, c-kit on SA chip
T1 construct: extracellular domain; also called hcKIT; biotinylated human c-kit
Protocol: (§1) All unique dAb clones were expressed in 50 ml cultures (OnEX plus carbenicillin) overnight at 37° C. and purified on protein A (VH dAbs) or protein L (VK dAbs). Purified dAbs were passed over a SA BIAcore chip coated with either human or mouse c-kit at 1 μM to identify those dAbs that bound specifically to either human or murine c-kit.

[2] = molecular target: T2, cyno c-kit (recombinant, on BIAcore chip) (cynomolgus monkey); assay: BIAcore, c-kit on SA chip
T2 chain: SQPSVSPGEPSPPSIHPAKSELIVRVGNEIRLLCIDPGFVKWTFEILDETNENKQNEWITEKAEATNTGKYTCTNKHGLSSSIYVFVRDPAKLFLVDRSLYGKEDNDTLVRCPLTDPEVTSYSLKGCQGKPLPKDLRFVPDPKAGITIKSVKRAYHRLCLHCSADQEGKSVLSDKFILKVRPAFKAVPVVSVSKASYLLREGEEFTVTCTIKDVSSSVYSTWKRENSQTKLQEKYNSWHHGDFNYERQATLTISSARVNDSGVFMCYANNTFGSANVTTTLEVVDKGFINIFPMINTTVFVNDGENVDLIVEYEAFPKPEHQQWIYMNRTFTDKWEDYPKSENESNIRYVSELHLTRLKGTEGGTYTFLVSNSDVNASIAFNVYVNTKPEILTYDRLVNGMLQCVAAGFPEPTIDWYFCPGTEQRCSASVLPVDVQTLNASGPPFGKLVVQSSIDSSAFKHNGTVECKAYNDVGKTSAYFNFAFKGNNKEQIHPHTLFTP

[3] = molecular target: T1, human c-kit (recombinant, on BIAcore …); assay: BIAcore, dAb at 1000 and 500 nM
Protocol: Unique dAbs were expressed as bacterial supernatants in 2.5 L shake flasks in Onex media at 37° C. for 24 hrs at 250 rpm. dAbs were purified from the culture media by absorption to protein A or L agarose followed by elution with 10 mM glycine pH2.0.

[4] = molecular target: T1, human c-kit (recombinant, on BIAcore …); assay: BIAcore
rat cKIT ECD = molecular target: T3, rat cKIT ECD (rat, UniProt Q63116 25-526); assay: BIAcore, bad fit
T3 construct: cloned into pDOM38, which provides a human IgG1 Fc; also called rcKIT; rckit; not shown: Human IgG1 Fc (and any linker) supplied by vector pDOM38
T3 sequence (Q63116 entry or part of it limits assumed, form in doubt): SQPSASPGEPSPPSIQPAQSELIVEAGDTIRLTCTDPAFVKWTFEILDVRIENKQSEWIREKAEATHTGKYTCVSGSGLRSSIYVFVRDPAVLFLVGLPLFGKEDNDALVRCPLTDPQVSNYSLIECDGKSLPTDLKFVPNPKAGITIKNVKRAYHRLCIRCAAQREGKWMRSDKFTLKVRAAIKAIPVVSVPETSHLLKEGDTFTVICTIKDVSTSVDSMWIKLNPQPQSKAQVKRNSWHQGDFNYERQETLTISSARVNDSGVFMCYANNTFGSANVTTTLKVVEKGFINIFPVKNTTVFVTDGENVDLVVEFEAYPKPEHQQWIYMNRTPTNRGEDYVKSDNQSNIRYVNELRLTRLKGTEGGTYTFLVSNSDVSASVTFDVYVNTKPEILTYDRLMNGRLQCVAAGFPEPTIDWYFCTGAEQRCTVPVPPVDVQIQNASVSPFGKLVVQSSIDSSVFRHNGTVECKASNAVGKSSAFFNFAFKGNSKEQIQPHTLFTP

[5] = molecular target: T1, human c-kit (recombinant, on BIAcore …); assay: BIAcore 2000, 1 uM dAb
Protocol: All binding data was performed on a BIAcore 2000 instrument at 1 uM of dAb concentration.

[6] = molecular target: T2, cyno c-kit (recombinant, on BIAcore …); assay: BIAcore, c-kit on SA chip
Protocol: as §1

[7] = molecular target: T4, human c-kit on HEL-92.1.7 and KU812 cells (human, UniProt P10721 26-976); assay: flow cytometry, HEL-92.1.7 cells
T4 construct: whole, on cells
T4 sequence (P10721 26-976): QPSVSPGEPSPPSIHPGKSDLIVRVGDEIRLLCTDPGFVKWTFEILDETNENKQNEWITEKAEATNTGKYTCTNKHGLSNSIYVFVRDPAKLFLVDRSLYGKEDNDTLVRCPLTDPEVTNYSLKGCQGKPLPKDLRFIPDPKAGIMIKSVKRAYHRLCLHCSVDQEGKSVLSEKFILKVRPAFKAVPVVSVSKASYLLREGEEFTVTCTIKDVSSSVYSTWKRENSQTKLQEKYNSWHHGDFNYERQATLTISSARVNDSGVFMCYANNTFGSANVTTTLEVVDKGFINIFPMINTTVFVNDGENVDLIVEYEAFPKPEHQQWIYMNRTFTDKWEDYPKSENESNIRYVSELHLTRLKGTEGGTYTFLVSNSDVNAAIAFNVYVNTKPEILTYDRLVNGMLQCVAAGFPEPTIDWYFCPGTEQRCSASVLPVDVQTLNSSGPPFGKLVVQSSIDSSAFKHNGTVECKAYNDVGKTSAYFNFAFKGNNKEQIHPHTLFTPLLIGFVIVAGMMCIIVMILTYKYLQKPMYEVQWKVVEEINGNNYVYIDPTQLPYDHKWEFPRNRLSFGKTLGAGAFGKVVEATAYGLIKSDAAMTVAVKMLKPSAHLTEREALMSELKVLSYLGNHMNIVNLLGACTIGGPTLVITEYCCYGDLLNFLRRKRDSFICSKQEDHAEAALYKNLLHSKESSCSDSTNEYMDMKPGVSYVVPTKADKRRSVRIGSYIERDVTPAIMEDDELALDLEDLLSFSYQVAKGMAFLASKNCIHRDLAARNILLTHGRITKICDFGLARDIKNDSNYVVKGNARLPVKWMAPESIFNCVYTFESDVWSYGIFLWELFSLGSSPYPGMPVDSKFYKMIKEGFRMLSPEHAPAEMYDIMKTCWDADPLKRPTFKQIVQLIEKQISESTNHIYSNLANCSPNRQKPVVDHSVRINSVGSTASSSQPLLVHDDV

[8] = molecular target: T1, human c-kit (recombinant, on BIAcore …); assay: BIAcore 2000
[9] = molecular target: T4, human c-kit on HEL-92.1.7 and KU812 …; assay: flow cytometry, HEL-92.1.7 cells (also YES on c-kit negative Jurkat)
[10] = molecular target: T1, human c-kit (recombinant, on BIAcore …); assay: BIAcore; remark: listed apart in the source
[11] = molecular target: Myosin Light Chain (on streptavidin chip; vMLC1-sulfotag); assay: BIAcore, bad fit
Myosin Light Chain (on streptavidin chip; vMLC1-sulfotag), sequence (chain, as listed by the source): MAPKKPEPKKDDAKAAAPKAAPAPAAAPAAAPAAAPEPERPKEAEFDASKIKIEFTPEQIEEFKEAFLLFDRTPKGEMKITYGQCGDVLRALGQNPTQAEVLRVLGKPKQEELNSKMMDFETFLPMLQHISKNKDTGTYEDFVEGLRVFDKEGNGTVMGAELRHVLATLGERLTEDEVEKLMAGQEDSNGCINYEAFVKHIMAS

[12] = molecular target: T1, human c-kit (recombinant, on BIAcore …); assay: BIAcore, bad fit
[13] = molecular target: T5, human Stem Cell Factor, 6xHIS tag (human, UniProt P21583 26-190, limits assumed); assay: BIAcore, SCF on CM5 chip
T5 construct: also called hSCF; human SCF
Protocol: (§2) Human and murine SCF were covalently attached to a CM5 BIAcore chip (GE Healthcare) in the presence of acetate pH 4 for both antigens. cKIT from various species were diluted to 1 μM in HBS-EP buffer (GE Healthcare) and run on the BIAcore in a 2-fold serial dilution to 1 nM.
(§3) Anti-human and anti-mouse SCF monoclonal antibodies (mAb) were used as controls (R&D systems).

[14] = molecular target: T6, mouse Stem Cell Factor, 6xHIS tag (mouse, UniProt P20826 26-190, limits assumed); assay: BIAcore, SCF on CM5 chip
T6 construct: also called mSCF; murine SCF
T6 sequence (looked up): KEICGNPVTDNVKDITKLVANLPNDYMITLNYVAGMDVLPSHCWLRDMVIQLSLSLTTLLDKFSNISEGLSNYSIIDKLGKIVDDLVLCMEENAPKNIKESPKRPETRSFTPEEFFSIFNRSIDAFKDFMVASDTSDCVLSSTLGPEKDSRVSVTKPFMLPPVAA
Protocol: as §2, §3

B1: DOM28h-94 (other)
VH: EVQLLESGGGLVQPGGSLRLSCAASGFTFFPYAMGWVRQAPGKGLEWVSFISGRGDTTYYADSVKGRFTISRDNSKNTLYLQMNSLRAEDTAVYYCAKTATSDLWNFDYWGQGTLVTVSS
notes: VH dAb, C-terminal FLAG tag (pDOM10); also called DOM28h-094
Kd [1]: 21800 nM | Kd [2]: 19200 nM | Kd [3]: 21800 nM

B8: DMS5053 (chimeric MLC mAb-cKIT dAb, DOM28m-017) (bispecific antibody)
heavy: not shown
light: DIVMSQSPSSLAVSAGDKVTMSCKSSQSLLYSRTRKNYLAWYQQKPGQSPKLLIYWASTRQSGVPDRFTGSGSGTDFTLTISSVQAEDLAVYYCKQSYNLFTFGSGTKLEIKRTVAAPSVFIFPPSDEQLKSGTASVVCLLNNFYPREAKVQWKVDNALQSGNSQESVTEQDSKDSTYSLSSTLTLSKADYEKHKVYACEVTHQGLSSPVTKSFNRGEC
Kd [10]: 36000 nM | Kd [11]: 0.003 nM

B9: DMS5055 (chimeric MLC mAb-cKIT dAb, DOM28m-104) (bispecific antibody)
heavy: not shown
light: DIVMSQSPSSLAVSAGDKVTMSCKSSQSLLYSRTRKNYLAWYQQKPGQSPKLLIYWASTRQSGVPDRFTGSGSGTDFTLTISSVQAEDLAVYYCKQSYNLFTFGSGTKLEIKRTVAAPSVFIFPPSDEQLKSGTASVVCLLNNFYPREAKVQWKVDNALQSGNSQESVTEQDSKDSTYSLSSTLTLSKADYEKHKVYACEVTHQGLSSPVTKSFNRGEC
Kd [10]: 72 nM | Kd [11]: 0.124 nM

B10: DMS5057 (chimeric MLC mAb-cKIT dAb, DOM28m-109) (bispecific antibody)
heavy: not shown
light: DIVMSQSPSSLAVSAGDKVTMSCKSSQSLLYSRTRKNYLAWYQQKPGQSPKLLIYWASTRQSGVPDRFTGSGSGTDFTLTISSVQAEDLAVYYCKQSYNLFTFGSGTKLEIKRTVAAPSVFIFPPSDEQLKSGTASVVCLLNNFYPREAKVQWKVDNALQSGNSQESVTEQDSKDSTYSLSSTLTLSKADYEKHKVYACEVTHQGLSSPVTKSFNRGEC
Kd [10]: 318 nM | Kd [11]: 0.116 nM

B11: DMS5059 (chimeric MLC mAb-cKIT dAb, DOM28m-114) (bispecific antibody)
heavy: not shown
light: DIVMSQSPSSLAVSAGDKVTMSCKSSQSLLYSRTRKNYLAWYQQKPGQSPKLLIYWASTRQSGVPDRFTGSGSGTDFTLTISSVQAEDLAVYYCKQSYNLFTFGSGTKLEIKRTVAAPSVFIFPPSDEQLKSGTASVVCLLNNFYPREAKVQWKVDNALQSGNSQESVTEQDSKDSTYSLSSTLTLSKADYEKHKVYACEVTHQGLSSPVTKSFNRGEC
Kd [11]: 10 nM | Kd [12]: 8 nM

B12: Cyno cKIT ECD-H6 (receptor)
chain: SQPSVSPGEPSPPSIHPAKSELIVRVGNEIRLLCIDPGFVKWTFEILDETNENKQNEWITEKAEATNTGKYTCTNKHGLSSSIYVFVRDPAKLFLVDRSLYGKEDNDTLVRCPLTDPEVTSYSLKGCQGKPLPKDLRFVPDPKAGITIKSVKRAYHRLCLHCSADQEGKSVLSDKFILKVRPAFKAVPVVSVSKASYLLREGEEFTVTCTIKDVSSSVYSTWKRENSQTKLQEKYNSWHHGDFNYERQATLTISSARVNDSGVFMCYANNTFGSANVTTTLEVVDKGFINIFPMINTTVFVNDGENVDLIVEYEAFPKPEHQQWIYMNRTFTDKWEDYPKSENESNIRYVSELHLTRLKGTEGGTYTFLVSNSDVNASIAFNVYVNTKPEILTYDRLVNGMLQCVAAGFPEPTIDWYFCPGTEQRCSASVLPVDVQTLNASGPPFGKLVVQSSIDSSAFKHNGTVECKAYNDVGKTSAYFNFAFKGNNKEQIHPHTLFTP
Kd [13]: 369 nM | Kd [14]: 867 nM

B13: DOM28h-5 (other)
chain: DIQMTQSPSSLSASVGDRVTITCRASQWIGTALTWYQQKPGKAPKLLIYRGSYLQSGVPSRFSGSGSGTDFTLTISSLQPEDFATYYCQQRYFHPYTFGQGTRVEIKR
notes: dAb, C-terminal FLAG tag (pDOM10); also called DOM28h-005
Kd [1]: 533 nM | Kd [2]: 550 nM | Kd [3]: 533 nM

Second part, the binder after the results:

Kd [4]: 6000 nM | Kd (rat cKIT ECD): 25 nM | Kd [5]: 6000 nM | Kd [6]: 2720 nM | Kd [1]: 2900 nM
B2: DOM28m-23 (other)
VH: EVRLLESGGGLVQPGGSLRLSCAASGFTFRDYVMVWVRQAPGKGLEWVSAIAPTGGYTYYADSVKGRFTISRDNSKNTLYLQMNSLRAEDTAVYYCAKSLRTWLSEDLPFDYWGQGTLVTVSS
notes: VH dAb, C-terminal FLAG tag (pDOM10); also called DOM28m-023

binding result [7]: binds
B3: DOM28m-47 (other)
VH: EVQLLESGGGLVQPGGSLRLSCAASGFTFEAYGMMWVRQAPGKGLEWVSSISHSGLITYYADSVKGRFTISRDNSKNTLYLQMNSLRAEDTAVYYCAENGPLRQNSYFDYWGQGTLVTVSS
notes: dAb, C-terminal FLAG tag (pDOM10)

binding result [7]: binds
B4: DOM28m-52 (other)
chain: EVQLLESGGGLVQPGGSLRLSCAASGFTFSSYNMSWVRQAPGKGLEWVSWISSSGLMTYYADSVKGRFTISRDNSKNTLYLQMNSLRAEDTAVYYCAKTSLGSHPSRRPFDYWGQGTLVTVSS
notes: as for B3

binding result [7]: binds
B5: DOM28m-53 (other)
VH: EVQLLESGGGLVQPGGSLRLSCAASGFTFSDYMMMWVRQAPGKGLEWVSTIDHAGAVTYYADSVKGRFTISRDNSKNTLYLQMNSLRAEDTAVYYCAKNQPVWQANQSRRFDYWGQGTLVTVSS
notes: as for B3

binding result [8]: no binding (tested: 1 uM) | binding result [9]: binds
B6: DOM28m-73 (other)
chain: EVQLLESGGGLVQPGGSLRLSCAASGFTFKHYSMNWVRQAPGKGLEWVSRISPSGVSTYYADSVKGRFTISRDNSKNTLYLQMNSLRAEDTAVYYCAKIMNSHKADEFDYWGQGTLVTVSS
notes: as for B3

Kd (rat cKIT ECD): 30 nM | Kd [6]: 29000 nM | Kd [1]: 7200 nM
B7: DOM28m-7 (other)
VH: EVQLLESGGGLVQPGGSLRLSCAASGFTFSNYAMGWVRQAPGKGLEWVSSISSSGFATYYADSVKGRFTISRDNSKNTLYLQMNSLRAEDTAVYYCAKSESRTFKAFDYWGQGTLVTVSS
notes: VH dAb, C-terminal FLAG tag (pDOM10); also called DOM28m-007
